Test results as given in the supplement of paper PMC12042874.
± gives the uncertainty stated by the source.

Test: amyloid nucleation score (Sup35N fusion, yeast selection) (log enrichment); library NNK3; higher = more nucleation; inactive = no reads after selection
In short: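 Three technical output replicates were used for random libraries. Psi-negative yeast expressing peptides of 20 random codons fused to Sup35N were induced with 100 μM copper sulfate for 24 hours and grown 7 days at 30°C on medium lacking adenine and uracil, and input and output plasmid inserts were Illumina-sequenced, excluding sequences with under 100 input reads. The nucleation score is the DiMSum log enrichment of output over input reads, centred on the mode score of non-aggregating sequences.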

Substance | amyloid nucleation score
DPINNYSLFFKLCLELHFFA | inactive
CIVYSFSRGFTSNGGEGYRW | 0.67 ± 0.22
VDQPQ | inactive
RLCNHKILDPACVLTSQVPI | inactive
TVIWLYIFRSQMPPVNPMRL | inactive
FGVVWGSKLFCRFGSVTIYP | inactive
IKFDGIIADFSSITVVLECT | 0.708 ± 0.25
LQISSMIFELYIFDLMMVM | inactive
YGVYISIFILCWNGGNNDDC | inactive
VFLCMGTYDTCFL | 0.638 ± 0.16
WFVRIIQLIT | inactive
CWFRLYQRNARVVDNFVNHG | inactive
SGVCYFHARTRKSSSLRELV | 1.2 ± 0.12
LIIHIFLVWDWSSIERRSIS | inactive
GYNCALWDVGCLHVFRPYAN | inactive
MAHAFDTR | inactive
IWCQRYYAIGRRVPKASYDG | -0.179 ± 0.78
PFHSVYVDDDAWNGVCLPAV | inactive
DQQCDDVWRRWDGYGRRKKR | inactive
SFLPSNSFFKYQCVMWC | inactive
VIKTHMWLGL | 0.633 ± 0.24
NGSNFFDCSQFLCSFGGDVV | 2.45 ± 0.072
QLHRENEVVRYVF | inactive
IMLKGS | inactive

Substance | amyloid nucleation score
CCSSRMYLEGCPSLRLMEHI | inactive
ITCLNMTWSTAGQWLCVSFT | 1.05 ± 0.17
FPIWLLDCKEDCVLSDVAAS | inactive
VCVTSSSMCNFDGLVVTRVV | inactive
YRLQLPYSVNEAVFLLVGSK | inactive
VTWNHSSCSERKRVRMSGWS | 0.801 ± 0.14
VGSQEANLAVGI | inactive
LQKCNWRRMVGRNQCWGKAR | 0.89 ± 0.19
GFHTI | -0.223 ± 0.73
KFSSMGTVSLSGKSLYSDAV | inactive
KLLLYMMYNRYLPM | 0.528 ± 0.32
NCDIPFFTRSEIVFLFVDFI | inactive
VLSQRVPQMHMTNGVTEASV | inactive
SLRLSCVDVQVNN | -0.253 ± 0.9
SYLVRCVARNLLCFERVRGS | inactive
VIGRVRIGLVFRSTIGFSEG | inactive
TCTLEFLNY | inactive
NFRPEKHINLMVCKSLPFV | 0.705 ± 0.21
RGQRVSSVMRRTQVGDWNTP | inactive
NGKVLM | inactive
KDRHVSYFGLYKLGWRYTPS | inactive
SLEHHQIIYVLARPACL | inactive
QSSLLSTVNGVFKSDTRVRV | inactive
STNSRFFSAYCSVVGMRRHA | inactive

Substance | amyloid nucleation score
YLVFNQY | 1.17 ± 0.086
FNGMACVFRISFVALRLQGG | -0.892 ± 1.7
IPYRVFRRTLNLVENMMCRM | inactive
VISMRVTGVVHRFWNEVYRD | 1.22 ± 0.1
PSSLKCKLAI | inactive
KSALYADLVGYLGSACMGSR | inactive
RSCSCLSRDKYNYLLIDSLV | inactive
TYENDLC | inactive
LWDALDKDSESVIDMGQNEG | inactive
DEFVCLEVDNLCMVCSEKM | -0.067 ± 0.73
HSSKSTGTYFGNMS | inactive
DVMKICMKLSLHICTVHISS | inactive
LSGYYEQVVWVNRSSNSTMN | inactive
WQPFD | inactive
NCCQFPVDAS | inactive
ALWFIHYGAG | 0.98 ± 0.24
YDTLDTKCAVADKEIFCRIP | inactive
YYVLPASG | inactive
NKHDHLFRKFFLCISLGLAG | inactive
HSRGENR | inactive
DSGLFKYSYGLWEKLLFYRM | inactive
WIRDFYEFAEWSSDTCGIRI | inactive
LNLSLVNCLMAVTCSLFL | 1.44 ± 0.13
TEESIDVDCVILVTNCHFRC | 0.804 ± 0.18

Substance | amyloid nucleation score
MPMGGRYSAKAIVLVQKKDW | inactive
SMDVLRFDQYRWLYRVFNLH | inactive
LFMSPVKSAWRIVCGNKFSQ | -0.642 ± 1.1
CLFRYSEYSVGKLMGYCDCG | inactive
SFNSVDTRLWTVPRWERMVN | inactive
WDPGFFWIMAVARFTIACQY | inactive
YRNSICHNREKAWHGSNKNR | inactive
CVFYCSKLWIRYNNVMMISS | 0.831 ± 0.1
PILELGGRSFTTWRC | inactive
FSPRKSLASLGITVVVDHCI | -0.057 ± 0.81
RIRALLD | inactive
GGSCTDSVVIEGI | 0.252 ± 0.24
LGVLMLQSTRFAAWVSSLGR | inactive
SRVDPLLRNWDCRFSSLLL | 0.935 ± 0.096
SNDFEVLVLQLLYFSIWCY | 1.48 ± 0.091
YLLSL | inactive
GLFIGYDVQ | inactive
TVKMRKFRRGTFRDMDIYWR | inactive
ITNCLTSACRTSLFMKTQII | inactive
QWSNCDMASAYYAYRNLNAD | inactive
NSLPCLGYGMFM | inactive
CRRNTVFMNRVYNNGLFEEC | inactive
PVHSMASQLPYNNNTTKCLV | inactive
FIGVCNLVWMELPLDAMRFF | 1.36 ± 0.11

Substance | amyloid nucleation score
LSLTRNSH | inactive
VRMGVNLGNKTLNTWESSCD | inactive
LGRAQYETQFSATSVRLEPG | -0.142 ± 0.82
TLLHDSDVGMQLSGSQRFFS | inactive
NNVVHEVNFLELRLRVILGY | inactive
DSCVPIYVDTYGGDLDVNGG | inactive
QIFLCTGFCR | 2.69 ± 0.062
HSDMLDYVSMVFFMVIRAGM | inactive
RVIMKIIVTFTA | 0.832 ± 0.23
LSLTYVSPHA | 0.968 ± 0.17
YDRGLISWTCVRVSS | inactive
LNCMVITFVCFLVSNSIGGD | 1.71 ± 0.11
SSLCTL | inactive
RYTMAVWRLMSCNSVKSVAL | inactive
TYSVGHR | inactive
NGYLACSPFS | inactive
KSHPLNSVPEKLMLVWRSWK | inactive
MFRVMSSVKLLS | -0.754 ± 0.96
RGIDYSHTL | inactive
RNWLMANS | inactive
SLIQY | inactive
YYPSEQTIGWPKLTFVDVVL | inactive
NFRLYLLNCN | inactive
